Data from patent US5945329A, “Customized proteases” (Carlsberg A/S, priority 1997, dated 1999).
Where a chain is given by its changes, count along the chain named. In names and notes the source's numbering stands. Values belong to the molecule of their own block, whether it stands above or below them.

What was measured:
[1] = molecular target: T1, carboxypeptidase Y (CPD-Y) variant E65A (Glu65 replaced by alanine) (Saccharomyces cerevisiae, UniProt P00729, E176A); assay: Aminolysis; KN(app) of nucleophile; type: biochemical, yeast; conditions: pH 7.5; for Kn,app (H-Val-NH2 as nucleophile): Table VI, substance of the line is the substrate (leaving group varied)
T1 construct: made in house; host or cells: S. cerevisiae W2579 (secreted)
T1 sequence (P00729 112-532 E176A): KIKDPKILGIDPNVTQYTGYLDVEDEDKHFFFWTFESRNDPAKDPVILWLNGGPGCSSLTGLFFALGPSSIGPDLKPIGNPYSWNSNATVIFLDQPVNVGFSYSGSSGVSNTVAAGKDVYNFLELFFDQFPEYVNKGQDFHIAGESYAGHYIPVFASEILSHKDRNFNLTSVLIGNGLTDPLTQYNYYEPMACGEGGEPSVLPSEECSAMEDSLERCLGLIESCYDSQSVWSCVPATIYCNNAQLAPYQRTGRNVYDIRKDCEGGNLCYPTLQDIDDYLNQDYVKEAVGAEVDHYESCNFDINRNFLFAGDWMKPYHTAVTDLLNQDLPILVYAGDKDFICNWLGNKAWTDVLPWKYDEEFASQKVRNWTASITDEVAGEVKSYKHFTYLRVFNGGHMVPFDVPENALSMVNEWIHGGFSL
Protocol: (§1) Aminolysis reactions were carried out in the following way. The nucleophile was dissolved in 50 mM Hepes, 5 mM EDTA and pH was adjusted to 7.5. Five (5) μl of substrate (8 mM FA-Ala-OBzl in methanol) was added to 190 μl nucleophile solution followed by 5 μl enzyme, resulting in a substrate concentration of 0.2 mM. For reactions carried out at pH 9.5, Hepes was replaced with Ches. During the reaction, 20 μl aliquots were removed from the reaction mixture and added to 50 μl 1% trifluoroacetic acid to quench the reaction. The reactant composition was determined by HPLC using a Waters HPLC equipped with a C-18 Waters Novapac 4μ reverse phase column and various gradients of acetonitrile in 0.1% trifluoroacetic acid. The separation was monitored at 302 nm allowing the direct quantification of the products from the integrated peak areas. The composition of the reaction mixture was determined at least twice during the reaction, the first time when 20-50% (preferably 35%) of the ester substrate had been consumed in the reaction and the second time when 50-90% (preferably 80%) of the substrate had been consumed. The products were collected and identified by amino acid analysis after acid hydrolysis using a Pharmacia Alpha Plus analyzer.
(§2) Further identification was obtained by co-chromatography of authentic standard compounds. The fraction of aminolysis (fa) was expressed as the ratio between the formed aminolysis product and the sum of all products being formed, i.e., unconsumed substrate was disregarded in the calculations. The KN(app), representing the nucleophile concentration at which fa is half the maximum value (a measure for the dissociation constant of the nucleophile), and famax (the highest possible fa obtained at saturation of the enzyme with nucleophile) were determined by fitting the values of fa obtained at a minimum of seven concentrations of nucleophile to a saturation. The value of fa obtained at the highest possible nucleophile concentration is designated fasat.
(§3) Aminolysis reactions were carried out in the following way. The nucleophile was dissolved in 50 mM HEPES, 5 mM EDTA and pH was adjusted to 7.5, 5 μl substrate (8 mM FA-Ala-OBzl or FA-Ala-Xaa-OH in methanol) was added to 190 μl nucleophile solution followed by 5 μl enzyme diluted in buffer to the appropriate concentration, resulting in a substrate concentration of 0.2 mM. During the reaction, 20 μl aliquots were removed from the reaction mixture and added to 50 μl 1% trifluoroacetic acid to quench the reaction. The reactant composition was determined by HPLC using a Waters HPLC equipped with a C-18 Waters Novapac 4μ reverse phase column and various gradients of acetonitrile in 0.1% trifluoroacetic acid. The separation was monitored at 302 nm allowing the direct quantification of the products from the integrated peak areas. The products were collected and identified by amino acid analysis after acid hydrolysis (Pharmacia Alpha Plus analyzer) and by co-chromatography of authentic standards. The fraction of aminolysis (fa) was expressed as the ratio between the formed aminolysis product and the sum of all products being formed, i.e. unconsumed substrate was disregarded in the calculations. The KN,app (a measure for the dissociation constant of the nucleophile) and famax (the highest possible fa obtained at saturation with nucleophile were determined by fitting the obtained fa values to the equation fa=famax /(1+KN,app /N).

[2] = molecular target: T2, carboxypeptidase Y (CPD-Y) variant N51S (Asn51 replaced with serine) (Saccharomyces cerevisiae, UniProt P00729, N162S); assay: Aminolysis; KN(app) of nucleophile; type: biochemical, yeast; conditions: Table VI; substance of the line is the substrate (leaving group varied), pH 7.5
T2 construct: made in house; host or cells: S. cerevisiae W2579 (secreted)
T2 sequence (P00729 112-532 N162S): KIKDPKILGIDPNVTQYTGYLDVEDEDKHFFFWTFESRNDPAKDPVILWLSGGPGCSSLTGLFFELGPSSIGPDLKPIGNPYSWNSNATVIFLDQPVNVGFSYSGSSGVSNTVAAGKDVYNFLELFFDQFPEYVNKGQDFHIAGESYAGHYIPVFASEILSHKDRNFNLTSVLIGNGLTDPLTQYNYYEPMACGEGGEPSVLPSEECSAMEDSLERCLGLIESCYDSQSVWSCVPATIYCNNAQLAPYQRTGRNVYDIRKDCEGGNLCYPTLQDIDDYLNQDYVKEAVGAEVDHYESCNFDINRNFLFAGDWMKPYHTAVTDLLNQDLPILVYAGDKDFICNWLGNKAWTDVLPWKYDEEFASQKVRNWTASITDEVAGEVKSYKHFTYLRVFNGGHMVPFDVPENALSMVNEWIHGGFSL
Protocol: as §1, §2, §3

[3] = molecular target: T3, carboxypeptidase Y (CPD-Y) variant N51Q (Asn51 replaced with glutamine) (Saccharomyces cerevisiae, UniProt P00729, N162Q); assay: Aminolysis; KN(app) of nucleophile; type: biochemical, yeast; conditions: for Kn,app (H-Val-NH2 as nucleophile): Table VI, substance of the line is the substrate (leaving group varied); for Kn,app (H-Val-NH2 as nucleophile) / Kn,app: pH 7.5; for KN(app): Table III (unit as in Tables I, II), ester substrate; for KN(app) / Kn,app: amino acid nucleophile; for Kn,app: Table V, FA-Ala-OBzl as substrate
T3 construct: made in house; host or cells: S. cerevisiae W2579 (secreted)
T3 sequence (P00729 112-532 N162Q): T2 sequence (P00729 112-532 N162S) with S51Q
Protocol: as §1, §2, §3

[4] = molecular target: T4, yeast carboxypeptidase Y (CPD-Y), wild type (SEQ ID NO:32) (Saccharomyces cerevisiae, UniProt P00729); assay: Aminolysis of ester/peptide substrates; KN(app) of nucleophile; type: biochemical; conditions: for Kn,app (H-Val-NH2 as nucleophile): Table VI, substance of the line is the substrate (leaving group varied); for Kn,app: Table V, FA-Ala-OBzl as substrate
T4 construct: purchased Carlbiotech, Copenhagen, Denmark
T4 sequence (P00729 112-532): T2 sequence (P00729 112-532 N162S) with S51N
Protocol: as §1, §2, §3

[5] = molecular target: T5, carboxypeptidase Y (CPD-Y) variant E145A (Glu145 replaced by alanine) (Saccharomyces cerevisiae, UniProt P00729, E256A); assay: Aminolysis; KN(app) of nucleophile; type: biochemical, yeast; conditions: pH 7.5; for Kn,app (H-Val-NH2 as nucleophile): Table VI, substance of the line is the substrate (leaving group varied); for Kn,app: Table V, amino acid nucleophile, FA-Ala-OBzl as substrate
T5 construct: made in house; host or cells: S. cerevisiae W2579 (secreted)
T5 sequence (P00729 112-532 E256A): as the sequence (P00729 112-532 E176A) above, with A65E, E145A counted along it
Protocol: as §1, §2, §3

[6] = substrate: CC(C)[C@H](NC(=O)[C@H](Cc1ccccc1)NC(=O)C=Cc1ccco1)C(=O)O; assay: Hydrolysis of FA-Phe-Val-OH; type: biochemical, yeast; conditions: other: hydrolysis of FA-Phe-Val-OH
[7] = Table II, amino acid nucleophile, substrate FA-Ala-OBzl, pH 7.5
[8] = Table III (unit as in Tables I, II), amino acid nucleophile, ester substrate

Molecule: C[C@H](NC(=O)[C@H](C)NC(=O)C=Cc1ccco1)C(=O)O [FA--Ala--Ala--OH, FA-Ala-Ala-OH]
Kn,app (H-Val-NH2 as nucleophile) [1]: 5.2 ± 0.5 mM
Kn,app (H-Val-NH2 as nucleophile) [2]: 1.9 ± 0.1 mM
Kn,app (H-Val-NH2 as nucleophile) [3]: 3.1 ± 0.1 mM
Kn,app (H-Val-NH2 as nucleophile) ([4]; pH 7.5): 1.8 ± 0.1 mM

Molecule: CC(C)C[C@H](NC(=O)[C@H](C)NC(=O)C=Cc1ccco1)C(=O)O [FA--Ala--Leu--OH, FA-Ala-Leu-OH]
Kn,app (H-Val-NH2 as nucleophile) [1]: 5.2 ± 0.1 mM
Kn,app (H-Val-NH2 as nucleophile) [3]: 2.4 ± 0.1 mM
Kn,app (H-Val-NH2 as nucleophile) [5]: 4.1 ± 0.1 mM
Kn,app (H-Val-NH2 as nucleophile) ([4]; pH 7.5): 1.6 ± 0.1 mM

Molecule: C[C@H](NC(=O)C=Cc1ccco1)C(=O)OCc1ccccc1 [FA--Ala--OBzl, FA-Ala-OBzl]
Kn,app (H-Val-NH2 as nucleophile) [1]: 4.2 ± 0.01 mM
Kn,app (H-Val-NH2 as nucleophile) [2]: 1.6 ± 0.1 mM
Kn,app (H-Val-NH2 as nucleophile) [3]: 3.1 ± 0.4 mM
Kn,app (H-Val-NH2 as nucleophile) [5]: 3.4 ± 0.4 mM
Kn,app (H-Val-NH2 as nucleophile) ([4]; pH 7.5): 1.7 ± 0.1 mM

Molecule: C[C@H](NC(=O)C=Cc1ccco1)C(=O)N[C@@H](Cc1ccccc1)C(=O)O [FA--Ala--Phe--OH, FA-Ala-Phe-OH]
Kn,app (H-Val-NH2 as nucleophile) [1]: 4.7 ± 0.1 mM
Kn,app (H-Val-NH2 as nucleophile) [3]: 3.1 ± 0.1 mM
Kn,app (H-Val-NH2 as nucleophile) [5]: 4.1 ± 0.1 mM
Kn,app (H-Val-NH2 as nucleophile) ([4]; pH 7.5): 1.1 ± 0.1 mM

Molecule: CC(C)C[C@H](N)C(=O)O [H--Leu--OH, H-Leu-OH]
KN(app) [3]: 42 ± 1 mM
Kn,app [3]: 42 ± 1 mM
Kn,app [5]: 40 ± 2 mM
KN(app) [4, 7]: 10 ± 0.8 mM
KN(app) [4, 8]: 10 ± 1 mM
Kn,app ([4]; amino acid nucleophile, pH 7.5): 10 ± 1 mM

Molecule: CC(C)[C@H](N)C(=O)O [H--Val--OH, H-Val-OH]
Kn,app ([1]; Table V, amino acid nucleophile, FA-Ala-OBzl as substrate): 69 ± 2 mM
KN(app) [3]: 61 ± 3 mM
Kn,app [3]: 61 ± 2 mM
Kn,app [5]: 79 ± 6 mM
KN(app) ([4]; Table I, amino acid nucleophile, substrate FA-Ala-OBzl 0.2 mM, pH 7.5): 13 ± 1 mM
KN(app) [4, 7]: 13 ± 1 mM
KN(app) [4, 8]: 13 ± 1 mM
Kn,app ([4]; amino acid nucleophile, pH 7.5): 13 ± 1 mM
KN(app) ([4]; nucleophile with substrate FA-Ala-OBzl, pH 7.5): 13 mM

kcat/Km of hydrolysis (CBZ-Ala-Leu-OH): 80000 M⁻¹ s⁻¹
kcat/Km of hydrolysis (CBZ-Lys-Leu-OH): 61700 M⁻¹ s⁻¹
kcat/Km of hydrolysis (CBZ-Phe-Leu-OH): 3.33e+06 M⁻¹ s⁻¹
kcat/Km of hydrolysis (CBZ-Ser-Leu-OH): 100000 M⁻¹ s⁻¹
kcat/Km of hydrolysis (CBZ-Glu-Leu-OH): 12000 M⁻¹ s⁻¹
estimated CPD-Y activity relative to wild type transformants (fold of wild type) (CBZ-Gly-Leu-OH): 1.1
estimated CPD-Y activity relative to wild type transformants (fold of wild type) (CBZ-Trp-Leu-OH): 1.2
estimated CPD-Y activity relative to wild type transformants (fold of wild type) (CBZ-Pro-Leu-OH): 1.8
estimated CPD-Y activity relative to wild type transformants (fold of wild type) (CBZ-His-Leu-OH): 1.1
Molecule: carboxypeptidase Y mutant 178Ser (enzyme)

kcat/Km of hydrolysis (CBZ-Ala-Leu-OH): 40000 M⁻¹ s⁻¹
kcat/Km of hydrolysis (CBZ-Lys-Leu-OH): 36700 M⁻¹ s⁻¹
kcat/Km of hydrolysis (CBZ-Phe-Leu-OH): 1.83e+06 M⁻¹ s⁻¹
kcat/Km of hydrolysis (CBZ-Ser-Leu-OH): 50000 M⁻¹ s⁻¹
kcat/Km of hydrolysis (CBZ-Glu-Leu-OH): 8330 M⁻¹ s⁻¹
estimated CPD-Y activity relative to wild type transformants (fold of wild type) (CBZ-Gly-Leu-OH): 0.6
estimated CPD-Y activity relative to wild type transformants (fold of wild type) (CBZ-Trp-Leu-OH): 1.9
estimated CPD-Y activity relative to wild type transformants (fold of wild type) (CBZ-Pro-Leu-OH): 2.8
estimated CPD-Y activity relative to wild type transformants (fold of wild type) (CBZ-His-Leu-OH): 0.9
Molecule: carboxypeptidase Y mutant 178Ser/215Ala/216Pro (enzyme)

famax of transpeptidation (nucleophile H-Val-NH2) (FA-Ala-Ala-OH): 0.96
famax of transpeptidation (nucleophile H-Val-NH2) (FA-Ala-Phe-OH): 0.66
famax of transpeptidation (nucleophile H-Val-NH2) (FA-Ala-Val-OH): 0.67
famax of transpeptidation (nucleophile H-Val-NH2) (FA-Ala-Leu-OH): 0.71
Molecule: carboxypeptidase Y mutant E65A (enzyme)

famax of transpeptidation (nucleophile H-Val-NH2) (FA-Ala-Phe-OH): 0.49
famax of transpeptidation (nucleophile H-Val-NH2) (FA-Ala-Val-OH): 0.8
famax of transpeptidation (nucleophile H-Val-NH2) (FA-Ala-Leu-OH): 0.65
Molecule: carboxypeptidase Y mutant E145A (enzyme)

kcat/KM of hydrolysis (FA-Phe-Val-OH): 300000 M⁻¹ s⁻¹
famax of transpeptidation (nucleophile H-Val-NH2) (FA-Ala-Ala-OH): 0.98
famax of transpeptidation (nucleophile H-Val-NH2) (FA-Ala-Phe-OH): 0.77
famax of transpeptidation (nucleophile H-Val-NH2) (FA-Ala-Val-OH): 0.91
famax of transpeptidation (nucleophile H-Val-NH2) (FA-Ala-Leu-OH): 0.8
Molecule: carboxypeptidase Y mutant N51Q (enzyme)

kcat/KM of hydrolysis (FA-Phe-Val-OH): 800000 M⁻¹ s⁻¹
famax of transpeptidation (nucleophile H-Val-NH2) (FA-Ala-Ala-OH): 0.88
famax of transpeptidation (nucleophile H-Val-NH2) (FA-Ala-Val-OH): 0.13
Molecule: carboxypeptidase Y mutant N51S (enzyme)

B1: carboxypeptidase Y (CPD-Y) variant N51S (Asn51 replaced with serine) (Saccharomyces cerevisiae S288C; N162S) (protein)
chain: T2 sequence (P00729 112-532 N162S)
notes: made in house; host or cells: S. cerevisiae W2579 (secreted)
Km [6]: 170 µM
kcat [6]: 135 s⁻¹
kcat/Km [6]: 800000 M⁻¹ s⁻¹
